From patent publication US20170145472

Target: T1, HCV NS3 helicase (Hepatitis C virus) (UniProt P26663)
T1 sequence: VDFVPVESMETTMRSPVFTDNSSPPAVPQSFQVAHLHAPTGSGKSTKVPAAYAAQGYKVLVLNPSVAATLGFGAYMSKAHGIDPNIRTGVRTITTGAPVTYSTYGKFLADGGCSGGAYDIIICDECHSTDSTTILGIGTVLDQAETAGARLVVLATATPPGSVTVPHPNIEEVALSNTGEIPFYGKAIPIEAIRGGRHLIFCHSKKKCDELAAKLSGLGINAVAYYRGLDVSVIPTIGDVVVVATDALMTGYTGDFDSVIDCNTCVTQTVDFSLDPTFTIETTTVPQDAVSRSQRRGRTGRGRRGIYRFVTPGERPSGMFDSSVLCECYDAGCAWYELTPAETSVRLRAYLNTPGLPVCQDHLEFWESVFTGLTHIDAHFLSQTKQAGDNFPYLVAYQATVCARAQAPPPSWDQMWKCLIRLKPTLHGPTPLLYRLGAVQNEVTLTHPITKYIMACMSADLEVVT

GTGGGTAGGGCGGGTTGGTGGCGACGGCAGCGAGGCAGAGGAGCAGAGGGAGCA / GCCTCGCTGCCGTCGCCACCAACCCGCCC [ON1/ON2 duplex substrate]
activity (fold luminescence enhancement): 4.5
